Test results: publication PMC11480844

B1: H2-Kb / B5 (parent)
chain 1: TQTVSQSDAHVTVFEGDSVELRCNYSYGGSIYLSWYIQHHGHGLQFLLKYYSGNPVVQGVNGFEAEFSKSDSSFHLRKASVHWSDSAVYFCAVSLYQGGRALIFGTGTTVSVSP
chain 2: EAGVTQSPRYAVLQEGQAVSFWCDPISGHDTLYWYQQPRDQGPQLLVYFRDEAVIDNSQLPSDRFSAVRPKGTNSTLKIQSAKQGDTATYLCASSFAGGARAEQFFGPGTRLTVL
chain 3: not shown
chain 4: IQKTPQIQVYSRHPPENGKPNILNCYVTQFHPPHIEIQMLKNGKKIPKVEMSDMSFSKDWSFYILAHTEFTPTETDTYACRVKHDSMAEPKTVYWDRDM
chain 5: SIINFEKL
B2: H2-Kb / E8 (parent)
chain 1: GDSVTQTEGLVTVTEGLPVKLNCTYQTTYLTIAFFWYVQYLNEAPQVLLKSSTDNKRTEHQGFHATLHKSSSSFHLQKSSAQLSDSALYYCALNTNTGKLTFGDGTVLTVKP
chain 2: EAAVTQSPRNKVAVTGGKVTLSCNQTNNHNNMYWYRQDTGHGLRLIHYSYGAGSTEKGDIPDGYKASRPSQENFSLILELATPSQTSVYFCASGDWGAGTGQLYFGEGSKLTVL
chain 3: not shown
chain 4: B1 chain 4
chain 5: SIINFEKL

Variants of: B1
Assay: % of reporter cells activated (NFAT-GFP), raw
Settings: with B5; scale: % of reporter cells activated
Note: test concentration or dose not given here.

Ratio to parent of substitutions, site by site:
chain 5 N4: R 0.556 | C 0.625 | G 1.33 | E 0.778 | T 0.514 | S 0.597 | W 0.931
chain 5 E6: M 0.903 | R 0.806 | Q 1.24 | F 1.54 | D 1 | N 1.12
chain 5 I3: Q 0.792 | G 0.917

Variants of: B2
Assay: % of reporter cells activated (NFAT-GFP), raw
Settings: with E8; scale: % of reporter cells activated

Ratio to parent of substitutions, site by site:
chain 5 S1: Q 0.0368 | P 0.0215 | I 0.0565 | C 0.0291 | K 0.00805 | E 0.252 | M 0.0169 | A 0.897 | W 0.0202 | Y 0.0177 | V 0.0822 | N 0.0146 | F 0.0608 | G 0.205 | L 0.0264 | H 0.0497 | D 1.87 | R 0.0279 | T 0.0377
chain 5 I3: T 0.273 | K 0.147 | L 1.93 | G 0.241 | P 0.735 | W 1.9 | E 0.331 | Y 3.36 | H 1.57 | R 0.605 | C 0.982 | F 2.52 | D 0.0231 | A 0.244 | M 1.45 | S 2.66 | Q 0.475 | N 0.231 | V 0.61
chain 5 L8: P 0.187 | R 0.331 | C 0.214 | I 0.998 | G 0.949 | T 0.444 | W 0.344 | Q 0.38 | H 0.898 | M 0.838 | E 0.264 | N 0.755 | Y 1.23 | D 0.154 | V 0.473 | S 0.214 | F 0.826 | K 0.228 | A 0.534
chain 5 F5: M 1.04 | V 3.19 | H 1.61 | D 0.0471 | E 0.539 | Q 0.682 | A 1.63 | K 0.557 | R 0.77 | I 0.735 | T 0.892 | C 1.41 | L 0.68 | P 1.03 | W 2.35 | S 1.09 | Y 1.09 | N 1.13 | G 1.93
chain 5 I2: E 0.694 | W 3.66 | D 1.78 | V 2.6 | P 1.66 | Y 0.205 | M 0.834 | T 2.56 | R 0.251 | L 2.58 | F 0.604 | A 1.19 | K 0.571 | N 0.771 | G 0.418 | Q 0.307 | S 1.54 | C 1.31 | H 0.943
chain 5 K7: G 0.377 | R 1.06 | D 0.288 | M 0.239 | W 0.235 | E 0.415 | I 0.132 | T 0.223 | A 0.522 | H 0.14 | F 0.14 | L 0.119 | Q 0.256 | V 0.175 | N 0.18 | P 0.0848 | C 0.196 | Y 0.121 | S 0.491
chain 5 N4: W 1.86 | V 0.637 | Q 0.0151 | L 0.0142 | E 0.0223 | I 0.11 | P 2.41 | M 0.0197 | C 0.0617 | H 0.0899 | A 0.402 | Y 0.0136 | F 0.0343 | G 0.104 | D 0.0157 | T 0.394 | R 0.0317 | S 0.0377 | K 0.0265
chain 5 E6: C 0.0282 | D 0.546 | N 0.03 | T 0.0257 | G 0.193 | L 0.0214 | P 0.169 | M 0.0317 | Q 0.115 | F 0.018 | V 0 | K 0.03 | Y 0.00591 | W 0.0496 | A 0.159 | I 0.0166 | H 0.0243 | S 0.0471 | R 0.0462
